{
  "source": "patent US20060177432",
  "system": "T1, 6xHis-PEBP (recombinant mouse PEBP with a 6xHis-tag at the N-terminus)",
  "T1 sequence": "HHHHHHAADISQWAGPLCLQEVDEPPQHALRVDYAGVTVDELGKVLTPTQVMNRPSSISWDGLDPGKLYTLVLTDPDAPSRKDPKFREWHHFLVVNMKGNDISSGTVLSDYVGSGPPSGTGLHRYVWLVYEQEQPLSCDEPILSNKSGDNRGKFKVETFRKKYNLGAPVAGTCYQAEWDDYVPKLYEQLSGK",
  "data": [
    {"substance": "tissue plasminogen activator", "values": [
      {"measurement": "amidolytic activity (chromogenic substrate, 405 nm)", "result": "The amidolytic activities of ... tissue plasminogen activator (0.5 pmol) ... were not affected"}
    ]},
    {"substance": "pancreatic elastase", "values": [
      {"measurement": "amidolytic activity (chromogenic substrate, 405 nm)", "result": "The amidolytic activities of ... pancreatic elastase (4 pmol) were not affected"}
    ]},
    {"substance": "trypsin", "values": [
      {"measurement": "amidolytic activity (chromogenic substrate, 405 nm)", "result": "The amidolytic activities of trypsin (0.005 pmol) ... were not affected"}
    ]}
  ]
}
